Kd, apparent binding efficiency (Bmax/KD) and percent of applied galectin bound and eluted data for eleven substances are collected here from publication PMC9919667.

pKd: −log10 of the molar value.

The target in assay [1] is asialofetuin (ASF) (bovine (from fetal calf serum)) (UniProt P12763). As to the kind of experiment: ELISA; ASF (5 µg/mL, 200 µL/well) adsorbed on Maxisorp plates; IMAC-purified galectin 0-30 µM in PBS, 1 h; peroxidase-conjugated anti-His6 antibody, TMB; apparent KD, one-site saturation fit; binding efficiency = Bmax/KD.
Assay [2] concerns the target fibronectin (from human plasma) (human) (UniProt P02751). As to the kind of experiment: ELISA; laminin, fibronectin or collagen IV (5 µg/mL, 100 µL/well) adsorbed on Maxisorp plates; galectin 0-10 µM, 1 h; peroxidase-conjugated anti-His6 antibody, TMB; apparent KD, one-site saturation fit.
For assay [3], the target named is laminin (from Engelbreth-Holm-Swarm sarcoma) (not stated (Engelbreth-Holm-Swarm sarcoma; detected with an anti-mouse-laminin antibody)). Described as above.
For assay [4], the target named is HSYGal-3 (His6-SNAP-yellow fluorescent protein-Gal-3) (human) (UniProt P17931). As to the kind of experiment: ELISA; crosslinking assay: ASF adsorbed on Maxisorp plates, saturating galectin (50 µM Gal-1C2S, 25 µM Gal-3, 40 µM Gal-8N) bound for 1 h at room temperature, then laminin, fibronectin or collagen IV 0-50 µM for 1 h; detected with anti-ECM-protein antibodies and peroxidase-conjugated secondary antibodies; apparent KD, one-site saturation fit.

In assay [5] the target is HGal-3 (His6-Gal-3) (human) (UniProt P17931). Described as above.
The target in assay [6] is collagen IV (from human placenta) (human). The assay is described as follows: ELISA; laminin, fibronectin or collagen IV (5 µg/mL, 100 µL/well) adsorbed on Maxisorp plates; galectin 0-10 µM, 1 h; peroxidase-conjugated anti-His6 antibody, TMB; apparent KD, one-site saturation fit.
Assay [7] addresses asialofetuin (ASF) (bovine (from fetal calf serum)) (UniProt P12763). As to the kind of experiment: affinity chromatography on glycoprotein-Sepharose column; ASF or fetuin coupled to CNBr-activated Sepharose 4 Fast Flow (1 mL column); 0.2 µmol of galectin IMAC eluate applied, 15 min incubation, PBS pH 7.5, washed with 10 column volumes, eluted with a 0-0.3 M lactose gradient; eluted amount by Bradford assay; repeated three times.

For assay [8], the target named is fetuin (bovine (from fetal calf serum)) (UniProt P12763). The assay is described as above.
Assay [9] addresses HSeGFPGal-8N (His6-SNAP-eGFP-Gal-8N) (human) (UniProt O00214). As to the kind of experiment: ELISA; crosslinking assay: ASF adsorbed on Maxisorp plates, saturating galectin (50 µM Gal-1C2S, 25 µM Gal-3, 40 µM Gal-8N) bound for 1 h at room temperature, then laminin, fibronectin or collagen IV 0-50 µM for 1 h; detected with anti-ECM-protein antibodies and peroxidase-conjugated secondary antibodies; apparent KD, one-site saturation fit.

For assay [10], the target named is HSDsRedMGal-1C2S (His6-SNAP-DsRedM-Gal-1C2S) (human) (UniProt P09382). Described as above.
Assay [11] concerns the target HGal-1C2S (His6-Gal-1 C2S) (human) (UniProt P09382). Described as above.
In assay [12] the target is HGal-8N (His6-Gal-8N, N-terminal domain of galectin-8) (human) (UniProt O00214). Described as above.
HGal-8N (His6-Gal-8N, N-terminal domain of galectin-8) (human), sequence (O00214 1-160): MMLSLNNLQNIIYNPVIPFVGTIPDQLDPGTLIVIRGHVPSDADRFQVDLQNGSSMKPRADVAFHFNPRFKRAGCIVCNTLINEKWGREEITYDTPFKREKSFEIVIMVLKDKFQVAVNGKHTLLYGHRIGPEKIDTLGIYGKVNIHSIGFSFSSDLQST

asialofetuin (ASF) (bovine (from fetal calf serum)), sequence (P12763 19-359): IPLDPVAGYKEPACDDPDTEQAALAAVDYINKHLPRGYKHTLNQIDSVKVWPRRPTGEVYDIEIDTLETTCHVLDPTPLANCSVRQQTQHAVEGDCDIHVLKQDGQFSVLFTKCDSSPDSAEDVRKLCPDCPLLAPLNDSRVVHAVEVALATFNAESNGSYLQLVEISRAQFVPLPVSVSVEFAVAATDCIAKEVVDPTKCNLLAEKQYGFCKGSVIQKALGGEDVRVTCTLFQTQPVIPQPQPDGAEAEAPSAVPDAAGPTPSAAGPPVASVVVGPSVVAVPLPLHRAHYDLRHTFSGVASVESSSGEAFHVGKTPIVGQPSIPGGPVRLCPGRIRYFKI
HSeGFPGal-8N (His6-SNAP-eGFP-Gal-8N), sequence (O00214 1-160): as the sequence (O00214 1-160) above
HGal-8N (His6-Gal-8N, N-terminal domain of galectin-8), sequence (O00214 1-160): as above
collagen IV (from human placenta) (human), sequence (P02462 173-1669, chain 1 of 2): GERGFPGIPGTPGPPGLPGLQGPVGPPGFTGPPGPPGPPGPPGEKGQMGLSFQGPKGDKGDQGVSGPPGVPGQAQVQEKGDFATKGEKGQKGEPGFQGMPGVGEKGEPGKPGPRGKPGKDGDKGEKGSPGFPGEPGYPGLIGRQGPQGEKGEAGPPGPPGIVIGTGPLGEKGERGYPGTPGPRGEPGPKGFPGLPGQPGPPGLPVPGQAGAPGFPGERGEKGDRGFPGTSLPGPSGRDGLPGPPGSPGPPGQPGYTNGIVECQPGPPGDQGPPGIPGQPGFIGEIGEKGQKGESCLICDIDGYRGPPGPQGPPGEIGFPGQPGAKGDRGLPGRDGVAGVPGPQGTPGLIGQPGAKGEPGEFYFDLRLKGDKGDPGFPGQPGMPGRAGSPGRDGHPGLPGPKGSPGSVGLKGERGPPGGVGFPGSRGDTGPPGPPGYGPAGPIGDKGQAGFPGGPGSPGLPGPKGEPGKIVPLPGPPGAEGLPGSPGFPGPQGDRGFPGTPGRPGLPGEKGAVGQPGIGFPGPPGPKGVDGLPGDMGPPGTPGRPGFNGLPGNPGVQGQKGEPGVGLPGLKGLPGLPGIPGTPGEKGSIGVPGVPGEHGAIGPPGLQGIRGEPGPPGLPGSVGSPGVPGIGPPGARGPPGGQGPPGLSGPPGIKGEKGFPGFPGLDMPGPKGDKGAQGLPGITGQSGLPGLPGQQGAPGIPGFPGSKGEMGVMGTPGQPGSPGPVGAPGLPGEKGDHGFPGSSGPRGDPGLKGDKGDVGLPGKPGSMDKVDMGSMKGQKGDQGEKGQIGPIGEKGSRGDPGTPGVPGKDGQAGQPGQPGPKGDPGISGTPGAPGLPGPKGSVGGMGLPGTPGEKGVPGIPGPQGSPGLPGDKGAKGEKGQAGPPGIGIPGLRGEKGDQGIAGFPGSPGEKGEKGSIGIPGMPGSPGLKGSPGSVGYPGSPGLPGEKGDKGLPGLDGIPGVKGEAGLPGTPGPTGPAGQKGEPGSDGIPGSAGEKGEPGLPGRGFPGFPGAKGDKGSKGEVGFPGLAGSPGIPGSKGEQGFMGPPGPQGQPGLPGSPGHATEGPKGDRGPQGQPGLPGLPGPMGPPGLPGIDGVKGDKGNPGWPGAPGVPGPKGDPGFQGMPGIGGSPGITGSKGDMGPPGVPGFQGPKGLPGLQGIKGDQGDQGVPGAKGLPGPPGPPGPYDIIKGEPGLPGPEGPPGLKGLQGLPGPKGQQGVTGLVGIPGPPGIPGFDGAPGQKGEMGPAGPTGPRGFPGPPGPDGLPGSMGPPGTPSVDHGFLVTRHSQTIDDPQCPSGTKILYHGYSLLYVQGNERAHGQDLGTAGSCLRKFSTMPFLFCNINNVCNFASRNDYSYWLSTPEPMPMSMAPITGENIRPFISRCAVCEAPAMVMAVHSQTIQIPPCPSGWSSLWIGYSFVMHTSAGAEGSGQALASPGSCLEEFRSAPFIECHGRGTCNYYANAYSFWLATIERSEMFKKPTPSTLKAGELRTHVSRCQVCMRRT
collagen IV (from human placenta) (human), sequence (P08572 184-1712, chain 2 of 2, further chain): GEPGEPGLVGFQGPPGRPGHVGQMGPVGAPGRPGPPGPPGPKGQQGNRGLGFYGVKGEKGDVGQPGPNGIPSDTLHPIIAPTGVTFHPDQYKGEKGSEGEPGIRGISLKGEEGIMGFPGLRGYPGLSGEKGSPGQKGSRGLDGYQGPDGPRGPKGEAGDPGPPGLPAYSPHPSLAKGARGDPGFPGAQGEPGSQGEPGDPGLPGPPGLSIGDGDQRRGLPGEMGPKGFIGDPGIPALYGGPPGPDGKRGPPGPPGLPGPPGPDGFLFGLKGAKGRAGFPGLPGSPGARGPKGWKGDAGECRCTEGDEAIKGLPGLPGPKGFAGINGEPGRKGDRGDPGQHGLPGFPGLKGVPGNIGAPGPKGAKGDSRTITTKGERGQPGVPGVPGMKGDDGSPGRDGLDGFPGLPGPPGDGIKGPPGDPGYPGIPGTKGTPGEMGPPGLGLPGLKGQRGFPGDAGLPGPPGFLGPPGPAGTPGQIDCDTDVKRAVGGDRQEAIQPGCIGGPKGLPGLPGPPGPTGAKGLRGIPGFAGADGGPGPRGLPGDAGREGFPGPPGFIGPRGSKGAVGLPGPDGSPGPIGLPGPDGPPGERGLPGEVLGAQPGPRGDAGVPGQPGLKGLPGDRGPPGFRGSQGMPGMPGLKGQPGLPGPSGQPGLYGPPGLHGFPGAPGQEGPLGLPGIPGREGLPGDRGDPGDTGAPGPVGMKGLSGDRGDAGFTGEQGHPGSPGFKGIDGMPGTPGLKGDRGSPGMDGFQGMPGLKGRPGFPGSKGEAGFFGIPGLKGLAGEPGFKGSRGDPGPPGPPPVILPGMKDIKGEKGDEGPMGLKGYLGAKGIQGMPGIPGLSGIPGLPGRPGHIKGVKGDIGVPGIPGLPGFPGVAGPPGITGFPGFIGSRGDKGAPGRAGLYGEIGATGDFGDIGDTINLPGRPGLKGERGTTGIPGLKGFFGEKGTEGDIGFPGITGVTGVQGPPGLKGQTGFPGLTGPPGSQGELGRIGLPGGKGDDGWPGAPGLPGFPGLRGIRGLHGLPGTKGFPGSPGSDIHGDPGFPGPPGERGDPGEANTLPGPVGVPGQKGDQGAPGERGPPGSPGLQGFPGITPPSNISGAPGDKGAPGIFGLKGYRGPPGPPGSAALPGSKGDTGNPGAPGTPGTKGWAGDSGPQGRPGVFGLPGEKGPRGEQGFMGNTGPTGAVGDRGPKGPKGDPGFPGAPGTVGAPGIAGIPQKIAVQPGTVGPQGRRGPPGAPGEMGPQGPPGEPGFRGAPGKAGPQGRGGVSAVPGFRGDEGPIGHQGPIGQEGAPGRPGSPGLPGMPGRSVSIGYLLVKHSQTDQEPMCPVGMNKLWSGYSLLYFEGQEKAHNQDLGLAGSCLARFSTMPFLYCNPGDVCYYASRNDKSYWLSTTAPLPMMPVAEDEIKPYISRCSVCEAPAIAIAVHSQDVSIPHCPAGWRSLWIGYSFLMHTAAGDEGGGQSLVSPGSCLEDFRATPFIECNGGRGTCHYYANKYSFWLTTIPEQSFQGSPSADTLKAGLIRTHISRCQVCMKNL
HSeGFPGal-8N (His6-SNAP-eGFP-Gal-8N) (human), sequence (O00214 1-160): as the sequence (O00214 1-160) above
fetuin (bovine (from fetal calf serum)), sequence (P12763 19-359): as the sequence (P12763 19-359) above

For the substance “HDsRedMGal-1C2S (His6-DsRedM-Gal-1C2S, without SNAP-tag) (from UniProt P09382 1-135) (natural protein)”, in assay [1], the negative logarithm of the Kd (pKd) is 5.06 and the apparent binding efficiency (Bmax/KD) worked out at 0.1 µM⁻¹.
Regarding “HGal-3 (His6-Gal-3) (from UniProt P17931 1-250) (natural protein)”, the pKd in assay [2] is 6.37; in assay [3], 6.89.
“HSGal-1C2S (His6-SNAP-Gal-1C2S, without fluorescent protein) (from UniProt P09382 1-135) (natural protein)”: in [1], the pKd was 6.10 and the apparent binding efficiency (Bmax/KD) was 1.1 µM⁻¹.
Consider “fibronectin (from human plasma) (from UniProt P02751 32-2477) (natural protein)”, for which the results for the negative logarithm of the Kd (pKd) in assay [4] and in assay [5] were 5.00 and 5.29, respectively.
With “HSeGFPGal-8N (His6-SNAP-eGFP-Gal-8N) (from UniProt O00214 1-160) (domain or fragment)”, the pKd in [2] was 7.22; in [3], 7.40.
On to “HGal-1C2S (His6-Gal-1 C2S) (from UniProt P09382 1-135) (natural protein)”, for which the negative logarithm of the Kd (pKd) was 5.71 in assay [2], 5.87 in assay [6], 6.38 in assay [3] and 6.30 in [1]. In addition, in [1], the apparent binding efficiency (Bmax/KD) was 1.6 µM⁻¹. Moreover, the percent of applied galectin bound and eluted in assay [7] came to 70%; in [8], 30%.
With “HSDsRedMGal-1C2S (His6-SNAP-DsRedM-Gal-1C2S) (from UniProt P09382 1-135) (natural protein)”, the pKd is 6.96 in assay [2], 6.85 in [6], 6.96 in assay [3] and 6.22 in assay [1]. In [1], the apparent binding efficiency (Bmax/KD) was determined as 1.4 µM⁻¹. This substance also registered a percent of applied galectin bound and eluted in [7] of 4%.
In the case of “HGal-8C (His6-Gal-8C, C-terminal domain of galectin-8) (from UniProt O00214 182-317) (domain or fragment)”, the percent of applied galectin bound and eluted in assay [7] worked out at 3%.
“laminin (from Engelbreth-Holm-Swarm sarcoma) (complex)”: the negative-log Kd (pKd) in [9] is 6.57; in assay [10], 6.43; in [11], 6.42; in assay [4], 6.35; in assay [12], 4.16; in assay [5] it was 6.57.
For “HSYGal-3 (His6-SNAP-yellow fluorescent protein-Gal-3) (from UniProt P17931 1-250) (natural protein)”, the pKd in [2] is 6.96; in assay [3] it was 7.15.
Consider “HGal-8N (His6-Gal-8N, N-terminal domain of galectin-8) (from UniProt O00214 1-160) (domain or fragment)”, for which the pKd in [2] is 6.28; in [3] it was 6.74.
